Blank lines part the entries; values can stand above or below the binder they belong to.
What was measured:
FcγRIIIA-V158 = molecular target: T1, FcγRIIIA-V158 (human, UniProt P08637 17-208, limits assumed); experiment: SPR Biacore, antibody immobilised, receptor as analyte, FIG. 1e
T1 construct: Soluble analyte in SPR, 0 to 12800 nM; construct not described; also called FcγRIIIA receptor
Method: (§1) Binding affinities of different FcγRs towards immunoglobulins were measured by Surface Plasmon Resonance (SPR) using a Biacore T100 instrument (GE Healthcare) at 25° C.

FcγRI = molecular target: T2, FcγRI (human, UniProt P12314 16-288, limits assumed); experiment: SPR Biacore, FIG. 1b
T2 construct: also called FcγR1; FcγRI receptor
Method: as §1

T2 sequence (P12314 16-288 limits assumed): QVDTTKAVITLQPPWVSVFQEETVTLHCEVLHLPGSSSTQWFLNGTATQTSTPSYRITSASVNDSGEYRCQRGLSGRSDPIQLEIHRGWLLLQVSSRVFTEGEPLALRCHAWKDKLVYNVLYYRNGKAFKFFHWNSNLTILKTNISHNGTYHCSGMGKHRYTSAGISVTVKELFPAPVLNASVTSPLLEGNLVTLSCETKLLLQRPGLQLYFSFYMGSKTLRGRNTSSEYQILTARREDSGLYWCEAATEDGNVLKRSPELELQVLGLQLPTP
T1 sequence (P08637 17-208 F176V limits assumed): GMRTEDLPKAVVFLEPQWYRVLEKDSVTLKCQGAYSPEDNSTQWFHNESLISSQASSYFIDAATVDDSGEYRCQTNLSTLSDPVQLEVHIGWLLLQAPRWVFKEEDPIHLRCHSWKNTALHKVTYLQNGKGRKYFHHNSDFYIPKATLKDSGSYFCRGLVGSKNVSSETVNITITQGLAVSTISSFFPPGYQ

binding result (FcγRIIIA-V158): binds
binding result (FcγRI): binds
B1: CD9 antibody IgG1-LALA (mAb 40A746.2.3) (antibody)
heavy: not shown
light: DIQMTQTTSSLSASLGDRVTISCSASQGISNYLNWYQQKPDGNVKLLIYYTSSLHSGVPSRFSGSGSGTDYSLTISNLEPEDIATYYCQQYSKLPYTFGGGTKLEIKRTVAAPSVFIFPPSDEQLKSGTASVVCLLNNFYPREAKVQWKVDNALQSGNSQESVTEQDSKDSTYSLSSTLTLSKADYEKHKVYACEVTHQGLSSPVTKSFNRGEC
notes: also called chim-hu-IgG1-LALA

binding result (FcγRIIIA-V158): binds
binding result (FcγRI): binds
B2: CD9 antibody IgG4-SPLE (mAb 40A746.2.3) (antibody)
heavy: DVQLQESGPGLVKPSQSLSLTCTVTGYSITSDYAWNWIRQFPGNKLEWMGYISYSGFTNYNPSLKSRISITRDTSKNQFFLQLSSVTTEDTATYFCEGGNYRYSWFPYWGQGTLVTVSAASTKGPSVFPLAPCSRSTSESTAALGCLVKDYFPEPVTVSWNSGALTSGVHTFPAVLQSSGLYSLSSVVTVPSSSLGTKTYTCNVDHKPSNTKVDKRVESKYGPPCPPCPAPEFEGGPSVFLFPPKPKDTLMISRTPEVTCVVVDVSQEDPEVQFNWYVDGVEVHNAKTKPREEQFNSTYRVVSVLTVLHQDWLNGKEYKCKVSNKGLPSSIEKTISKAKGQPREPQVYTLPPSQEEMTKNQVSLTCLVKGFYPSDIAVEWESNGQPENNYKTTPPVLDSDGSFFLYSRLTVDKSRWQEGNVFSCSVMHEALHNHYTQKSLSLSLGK
light: B1 light
notes: also called chim-hu-IgG4-SPLE

binding result (FcγRI): binds
B3: CD9 antibody IgG1-P329G (mAb 40A746.2.3) (antibody)
heavy: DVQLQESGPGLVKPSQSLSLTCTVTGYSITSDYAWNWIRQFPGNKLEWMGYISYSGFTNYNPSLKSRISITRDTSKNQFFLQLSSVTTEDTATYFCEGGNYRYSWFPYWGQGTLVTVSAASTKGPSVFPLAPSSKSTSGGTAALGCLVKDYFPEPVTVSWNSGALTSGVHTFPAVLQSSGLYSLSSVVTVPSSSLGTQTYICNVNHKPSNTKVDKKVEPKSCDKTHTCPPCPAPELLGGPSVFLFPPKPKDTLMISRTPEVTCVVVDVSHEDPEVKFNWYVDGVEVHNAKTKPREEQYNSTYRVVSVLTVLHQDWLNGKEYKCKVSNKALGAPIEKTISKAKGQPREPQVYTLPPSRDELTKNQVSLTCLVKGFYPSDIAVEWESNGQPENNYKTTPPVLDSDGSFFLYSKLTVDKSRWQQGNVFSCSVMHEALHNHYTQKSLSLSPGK
light: B1 light
notes: also called chim-hu-IgG-WT-P329G; TA IgG1 P329G

— patent publication US20150239981A1 (Hoffmann-La Roche, published 2015)
